From patent EP4613767A1 (Shanghai Qilu Pharmaceutical Research and Development …, dated 2025)

B1: bispecific antigen-binding molecule G100 (bispecific antibody)
chain 1: not shown
chain 2: EVKLVESGGGLVQPGGSLKLSCAASGFTFNTYAMNWVRQAPGKGLEWVARIRSKYNNYATYYADSVKDRFTISRDDAKNTLYLQMNNLRTEDTAVYYCVRHGNFGNSYVSWFAYWGQGTLVTVSSGGGGSGGGGSGGGGSAQAVVTQEPSLTVSPGGTVTLTCRSSTGAVTTSNYANWVQQKPGQAPRGLIGGTNKRAPGTPARFSGSLLGGKAALTLSGAQPEDEAEYYCALWYSNLWVFGGGTKLTVLEPKSSDKTHTCPPCPAPEAAGGPSVFLFPPKPKDTLMISRTPEVTCVVVDVSHEDPEVKFNWYVDGVEVHNAKTKPREEQYNSTYRVVSVLTVLHQDWLNGKEYKCKVSNKALPAPIEKTISKAKGQPREPQVCTLPPSRDELTKNQVSLSCAVKGFYPSDIAVEWESNGQPENNYKTTPPVLDSDGSFFLVSKLTVDKSRWQQGNVFSCSVMHEALHNRYTQKSLSLSPGK
notes: Heterodimer of two chains (Format 1): one anti-GPC3 VHH on Knob-Fc, one anti-CD3 scFv on Hole-Fc; also called anti-CD3-GPC3 bispecific antibody; Format 1
B2: bispecific antigen-binding molecule G156 (bispecific antibody)
chain 1: not shown
chain 2: B1 chain 2
notes: Heterodimer of two chains (Format 2): two anti-GPC3 VHH on the Knob-Fc chain, one anti-CD3 scFv on Hole-Fc; also called anti-CD3-GPC3 bispecific antibody; Format 2

Key:
[1] = target: T1, human CD3 naturally expressed on Jurkat cells (human, UniProt P07766 23-207; P04234 22-171; P09693 23-182); assay: FACS on Jurkat cells naturally expressing human CD3
T1 construct: whole, on cells; also called hCD3

[2] = target: T2, monkey GPC3 protein (Acro, Cat. No.: GP3-C522a) (monkey); assay: SPR Biacore 8K, anti-human Fc on CM5 chip, GPC3 protein as analyte, 1:1 fit
T2 construct: Bought recombinant protein

[3] = target: T3, human CD3 E&D protein (Acro, Cat. No.: CDD-H52W1) (human, UniProt P07766 23-126; P04234 22-105); assay: SPR Biacore 8K, CD3 E&D immobilised on CM5 chip, antibody as analyte, 1:1 fit
T3 construct: Bought recombinant protein

[4] = target: monkey CD3 E&D protein (Acro, Cat. No.: CDD-C52W4) (monkey, UniProt Q95LI5 22-117; Q95LI8 22-105); assay: as above
Chain of monkey CD3 E&D protein (Acro, Cat. No.: CDD-C52W4) (Q95LI5 22-117, chain 1 of 2): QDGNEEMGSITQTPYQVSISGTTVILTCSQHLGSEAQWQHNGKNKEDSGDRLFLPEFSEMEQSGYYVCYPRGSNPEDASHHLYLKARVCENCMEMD
Chain of monkey CD3 E&D protein (Acro, Cat. No.: CDD-C52W4) (Q95LI8 22-105, chain 2 of 2): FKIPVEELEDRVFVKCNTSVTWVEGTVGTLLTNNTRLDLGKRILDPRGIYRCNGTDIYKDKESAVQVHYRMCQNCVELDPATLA

T3 sequence (P07766 23-126, chain 1 of 2): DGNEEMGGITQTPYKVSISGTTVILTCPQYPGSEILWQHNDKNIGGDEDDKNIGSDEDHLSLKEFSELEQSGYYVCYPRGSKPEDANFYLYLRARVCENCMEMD
T3 sequence (P04234 22-105, chain 2 of 2): as the sequence (Q95LI8 22-105, chain 2 of 2) above, with V5I, K15N, V20I, T32S, N33D, N34I, A64T, N74S, L83V counted along it
T1 sequence (P07766 23-207, chain 1 of 3): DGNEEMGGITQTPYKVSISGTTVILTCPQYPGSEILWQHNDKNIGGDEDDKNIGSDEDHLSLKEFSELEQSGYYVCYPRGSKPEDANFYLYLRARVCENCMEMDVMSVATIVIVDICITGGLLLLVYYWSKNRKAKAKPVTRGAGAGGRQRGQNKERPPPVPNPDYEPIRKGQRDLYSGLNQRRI
T1 sequence (P04234 22-171, chain 2 of 3): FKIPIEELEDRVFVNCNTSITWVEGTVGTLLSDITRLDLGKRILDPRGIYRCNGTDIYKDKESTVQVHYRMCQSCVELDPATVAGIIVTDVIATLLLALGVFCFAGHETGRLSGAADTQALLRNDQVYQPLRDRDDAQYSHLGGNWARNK
T1 sequence (P09693 23-182, chain 3 of 3): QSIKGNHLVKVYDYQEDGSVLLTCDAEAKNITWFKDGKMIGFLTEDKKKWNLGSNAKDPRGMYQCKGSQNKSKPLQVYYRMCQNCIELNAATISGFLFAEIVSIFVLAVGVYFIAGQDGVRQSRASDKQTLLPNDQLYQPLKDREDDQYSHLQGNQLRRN

| Binder | EC50 [1] [nM] | Kd [2] [nM] | koff [2] [s⁻¹] | kon [2] [M⁻¹ s⁻¹] | Kd [3] [nM] | koff [3] [s⁻¹] | kon [3] [M⁻¹ s⁻¹] | Kd [4] [nM] | koff [4] [s⁻¹] | kon [4] [M⁻¹ s⁻¹] |
| --- | --- | --- | --- | --- | --- | --- | --- | --- | --- | --- |
| B1 | 23.9 | 9.15 | 0.00276 | 302000 | 3.49 | 0.00286 | 820000 | 5.66 | 0.00427 | 755000 |
| B2 | 27.4 | 9.62 | 0.00275 | 285000 | 1.3 | 0.00193 | 1.48e+06 | 2.79 | 0.00367 | 1.32e+06 |
